The RNAGym collection of RNA variant scans (doi:10.1093/molbev/msab373)

B1: Azoarcus group I ribozyme (parent)
chain: GUGCCUUGCGCCGGGAAACCACGCAAGGGAUGGUGUCAAAUUCGGCGAAACCUAAGCGCCCGCCCGGGCGUAUGGCAACGCCGAGCCAAGCUUCGGCGCCUGCGCCGAUGAAGGUGUAGAGACUAGACGGCACCCACCUAAGGCAAACGCUAUGGUGAAGGCAUAGUCCAGGGAGUGGCGAAAGUCACACAAACCGG

Variants of: B1
Test: reverse-splicing fitness (ratio to wild type); higher = more active; in vitro selection; Mg2+ level not given
In short: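 An in vitro group I ribozyme library with randomized positions was T7-transcribed and gel-purified. In triplicate, 10 pmol RNA in EPPS pH 7.5 was reacted with 50 pmoles of a 30-nt RNA substrate for 1 h at 37 °C across several added MgCl2 levels (1–48 mM), then stopped with EDTA. Products were reverse transcribed from a substrate-complementary primer, PCR-amplified and sequenced (HiSeq 4000). Fitness is a variant's read proportion after selection over that before, normalised to wild type.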

In order of falling reverse-splicing fitness:
1. GUGCCUUGCGCCGGGAAACCACGCAAGGGAUGGUGUCAAAUUCGGCGAAACCUAAGCGCCCGCCCGGGCGUAUGGCAACGCUGAGCCAAGCUUCGGCGCCUGCGCCGAUGCAGGUGUAGUGACUAGACGGCACCCACCUAAGGCCAACGUUAUGGUGAAGGCAUAGUCCAGGGAGCGGCGAAAGUCACACAAACCGG  0.00591
2. GUGCCUUGCGCCGGGAAACCACGCAAGGGAUGGUGUCAAAUUCGGCGAAACCUAAGCGCCCGCCCGGGCGUAUGGCAACGCUGAGCCAAGCUUCGGCGCCUGCGCCGAUGCAGGUGUAGUGACUAGACGGCACCCACCUAAGGCCAACGUUAUGGUGAAGGCAUAGUCCAGGGAGAGGCGAAAGUCACACAAACCGG  0.00424
3. GUGCCUUGCGCCGGGAAACCACGCAAGGGAUGGUGUCAAAUUCGGCGAAACCUAAGCGCCCGCCCGGGCGUAUGGCAACGCUGAGCCAAGCUUCGGCGCCUGCGCCGAUGCAGGUGUAGUGACUAGACGGCACCCACCUAAGGCCAACGCUAUGGUGAAGGCAUAGUCUAGGGAGUGGCGAAAGUCACACAAACCGG  0.0039
4. GUGCCUUGCGCCGGGAAACCACGCAAGGGAUGGUGUCAAAUUCGGCGAAACCUAAGCGCCCGCCCGGGCGUAUGGCAACGCUGAGCCAAGCUUCGGCGCCUGCGCCGAUGCAGGUGUAGUGACUAGACGGCACCCACCUAAGGCCAACGCUAUGGUGAAGGCAUAGUCUAGGGAGAGGCGAAAGUCACACAAACCGG  0.00335
5. GUGCCUUGCGCCGGGAAACCACGCAAGGGAUGGUGUCAAAUUCGGCGAAACCUAAGCGCCCGCCCGGGCGUAUGGCAACGCUGAGCCAAGCUUCGGCGCCUGCGCCGAUGCAGGUGUAGUGACUAGACGGCACCCACCUAAGGCCAACGCUAUGGUGAAGGCAUAGUCGAGGGAGUGGCGAAAGUCACACAAACCGG  0.00298
6. GUGCCUUGCGCCGGGAAACCACGCAAGGGAUGGUGUCAAAUUCGGCGAAACCUAAGCGCCCGCCCGGGCGUAUGGCAACGCUGAGCCAAGCUUCGGCGCCUGCGCCGAUGCAGGUGUAGUGACUAGACGGCACCCACCUAAGGCCAACGUUAUGGUGAAGGCAUAGUCCAGGGAGGGGCGAAAGUCACACAAACCGG  0.0029
7. GUGCCUUGCGCCGGGAAACCACGCAAGGGAUGGUGUCAAAUUCGGCGAAACCUAAGCGCCCGCCCGGGCGUAUGGCAACGCUGAGCCAAGCUUCGGCGCCUGCGCCGAUGCAGGUGUAGUGACUAGACGGCACCCACCUAAGGCCAACGCUAUGGUGAAGGCAUAGUCUAGGGAGCGGCGAAAGUCACACAAACCGG  0.00263
8. GUGCCUUGCGCCGGGAAACCACGCAAGGGAUGGUGUCAAAUUCGGCGAAACCUAAGCGCCCGCCCGGGCGUAUGGCAACGCUGAGCCAAGCUUCGGCGCCUGCGCCGAUGCAGGUGUAGUGACUAGACGGCACCCACCUAAGGCCAACGCUAUGGUGAAGGCAUAGUCAAGGGAGCGGCGAAAGUCACACAAACCGG  0.00244
9. GUGCCUUGCGCCGGGAAACCACGCAAGGGAUGGUGUCAAAUUCGGCGAAACCUAAGCGCCCGCCCGGGCGUAUGGCAACGCUGAGCCAAGCUUCGGCGCCUGCGCCGAUGCAGGUGUAGUGACUAGACGGCACCCACCUAAGGCCAACGCUAUGGUGAAGGCAUAGUCAAGGGAGAGGCGAAAGUCACACAAACCGG  0.00241
10. GUGCCUUGCGCCGGGAAACCACGCAAGGGAUGGUGUCAAAUUCGGCGAAACCUAAGCGCCCGCCCGGGCGUAUGGCAACGCUGAGCCAAGCUUCGGCGCCUGCGCCGAUGCAGGUGUAGUGACUAGACGGCACCCACCUAAGGCCAACGCUAUGGUGAAGGCAUAGUCAAGGGAGUGGCGAAAGUCACACAAACCGG  0.00236
11. GUGCCUUGCGCCGGGAAACCACGCAAGGGAUGGUGUCAAAUUCGGCGAAACCUAAGCGCCCGCCCGGGCGUAUGGCAACGCUGAGCCAAGCUUCGGCGCCUGCGCCGAUGCAGGUGUAGUGACUAGACGGCACCCACCUAAGGCCAACGCUAUGGUGAAGGCAUAGUCGAGGGAGCGGCGAAAGUCACACAAACCGG  0.00215
12. GUGCCUUGCGCCGGGAAACCACGCAAGGGAUGGUGUCAAAUUCGGCGAAACCUAAGCGCCCGCCCGGGCGUAUGGCAACGCUGAGCCAAGCUUCGGCGCCUGCGCCGAUGCAGGUGUAGUGACUAGACGGCACCCACCUAAGGCCAACGCUAUGGUGAAGGCAUAGUCGAGGGAGAGGCGAAAGUCACACAAACCGG  0.00206
13. GUGCCUUGCGCCGGGAAACCACGCAAGGGAUGGUGUCAAAUUCGGCGAAACCUAAGCGCCCGCCCGGGCGUAUGGCAACGCUGAGCCAAGCUUCGGCGCCUGCGCCGAUGCAGGUGUAGUGACUAGACGGCACCCACCUAAGGCCAACGCUAUGGUGAAGGCAUAGUCUAGGGAGGGGCGAAAGUCACACAAACCGG  0.00205
14. GUGCCUUGCGCCGGGAAACCACGCAAGGGAUGGUGUCAAAUUCGGCGAAACCUAAGCGCCCGCCCGGGCGUAUGGCAACGCUGAGCCAAGCUUCGGCGCCUGCGCCGAUGCAGGUGUAGUGACUAGACGGCACCCACCUAAGGCCAACGCUAUGGUGAAGGCAUAGUCGAGGGAGGGGCGAAAGUCACACAAACCGG  0.00186
15. GUGCCUUGCGCCGGGAAACCACGCAAGGGAUGGUGUCAAAUUCGGCGAAACCUAAGCGCCCGCCCGGGCGUAUGGCAACGCUGAGCCAAGCUUCGGCGCCUGCGCCGAUGCAGGUGUAGUGACUAGACGGCACCCACCUAAGGCCAACGCUAUGGUGAAGGCAUAGUCAAGGGAGGGGCGAAAGUCACACAAACCGG  0.0017
